The text below walks through data of patent publication US20080279838, “Reconstructed Human Mariner Transposon Capable of Stable Gene Transfer Into Chromosomes in Vertebrates” (published 2008).

This data set deals with T1, Hsmar1-Prime transposase (Hsmar1-P) (Homo sapiens, UniProt Q53H47 SEQ:1-343).
T1 chain: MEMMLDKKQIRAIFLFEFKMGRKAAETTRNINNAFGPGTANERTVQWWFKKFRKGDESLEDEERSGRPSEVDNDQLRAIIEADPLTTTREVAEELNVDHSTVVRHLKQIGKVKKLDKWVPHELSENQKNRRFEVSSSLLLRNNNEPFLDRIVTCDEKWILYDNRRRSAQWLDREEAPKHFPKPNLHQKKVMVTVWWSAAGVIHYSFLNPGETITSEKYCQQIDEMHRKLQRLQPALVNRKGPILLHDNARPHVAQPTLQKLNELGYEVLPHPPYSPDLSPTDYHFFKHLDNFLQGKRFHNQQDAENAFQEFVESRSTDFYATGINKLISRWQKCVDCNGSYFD
In words: cell_activity; HeLa cells, donor pHsmar1/neo plus helper; excision with 3 bp footprint, integration at TA. Conditions: tags: expressed from pFV-4a helper plasmid; chain copies: 2; 30 bp terminal inverted repeats in plasmid donor.

B1: Hsmar1 transposon inverted repeats (left IR / right IR, flanking SV40-neo in pHsmar1/neo) (dsDNA)
DNA 1: TTAGGTTGGTGCAAAAGTAATTGCGGTTTT
DNA 2: AAAACCGCAATTACTTTTGCACCAACCTAA
As to B1, the activity is ~20 fold increase in G418-resistant colonies.
